Assay results: paper PMC11480844

B1: H2-Kb / E9 (parent)
chain 1: QQKVQQSPESLTVSEGAMASLNCTFSDRSSDNFRWYRQHSGKGLEVLVSIFSDGEKEEGSFTAHLNRASLHVFLHIREPQPSDSALYLCAVSRSSGSWQLIFGSGTQLTVMP
chain 2: NSGVVQSPRYIIKGKGERSILKCIPISGHLSVAWYQQTQGQELKFFIQHYDKMERDKGNLPSRFSVQQFDDYHSEMNMSALELEDSAVYFCASSRDSNNQAPLFGEGTRLSVL
chain 3: not shown
chain 4: IQKTPQIQVYSRHPPENGKPNILNCYVTQFHPPHIEIQMLKNGKKIPKVEMSDMSFSKDWSFYILAHTEFTPTETDTYACRVKHDSMAEPKTVYWDRDM
chain 5: SIINFEKL
B2: H2-Kb / B13 (parent)
chain 1: AQKVTQTQTSISVMEKTTVTMDCVYETQDSSYFLFWYKQTASGEIVFLIRQDSYKKENATVGHYSLNFQKPKSSIGLIITATQIEDSAVYFCAMREGTGGYKVVFGSGTRLLVSP
chain 2: EAAVTQSPRNKVTVTGGNVTLSCRQTNSHNYMYWYRQDTGHGLRLIHYSYGAGNLQIGDVPDGYKATRTTQEDFFLLLELASPSQTSLYFCASSDGTGHEQYFGPGTRLTVL
chain 3: not shown
chain 4: B1 chain 4
chain 5: SIINFEKL
B3: H2-Kb / H5 (parent)
chain 1: GEQVEQRPPHLSVREGDSAVIICTYTDPNSYYFFWYKQEPGAGLQLLMKVFSSTEINEGQGFTVLLNKKDKQLSLNLTAAHPGDSAVYFCAVSNYGSSGNKLIFGIGTLLSVKP
chain 2: EAAVTQSPRNKVAVTGGKVTLSCNQTNNHNNMYWYRQDTGHGLRLIHYSYGAGSTEKGDIPDGYKASRPSQENFSLILELATPSQTSVYFCASGDRERDTQYFGPGTRLLVL
chain 3: not shown
chain 4: B1 chain 4
chain 5: SIINFEKL
B4: H2-Kb / B3 (parent)
chain 1: GQQVKQSSPSLTVQEGGISILNCDYENDMFDYFAWYKKYPDNSPTLLISVRSNVDKREDGRLTVFLNKSGKHFSLHITASQPEDTAVYLCAAGNTGYQNFYFGKGTSLTVIP
chain 2: DSGVVQSPRHIIKEKGGRSVLTCIPISGHSNVVWYQQTLGKELKFLIQHYEKVERDKGFLPSRFSVQQFDDYHSEMNMSALELEDSAMYFCASSSLQGARNQAPLFGEGTRLSVL
chain 3: not shown
chain 4: B1 chain 4
chain 5: SIINFEKL

Variants of: B1
Experiment: % of reporter cells activated (NFAT-GFP), raw
Conditions: with E9; scale: % of reporter cells activated
Also: test concentration or dose not given here.

Ratio to parent, by site and new letter:
chain 5 I2: S 1.46; C 2.31; Q 1.77; D 2.31; G 1.32; R 1.06; K 1.2; T 2.01; V 2.13; H 1.71; W 1.86; A 2.22; E 2.07; N 1.77; F 1.02; Y 1.53; M 1.59; L 1.5; P 1.77
chain 5 F5: I 1.02; R 0.671; M 1.74; L 1.98; G 1.74; S 1.83; K 2.54; C 1.95; H 1.89; W 1.14; P 2.51; Q 1.32; T 1.45; N 2.01; E 2.43; A 1.68; Y 2.37; D 3.05; V 1.89
chain 5 I3: W 1.74; R 1.89; F 1.26; S 2.13; K 2.31; L 2.07; T 1.68; M 1.17; P 1.68; V 1.23; E 1.86; Y 2.43; A 1.71; D 1.41; N 0.778; Q 1.83; G 1.62; C 1.65; H 1.53
chain 5 S1: L 2.01; A 3.05; I 2.49; C 3.08; Y 1.2; N 1.32; P 1.23; G 2.1; E 2.1; F 2.34; W 1.2; H 2.01; T 1.35; R 0.719; V 1.86; M 1.5; Q 1.16; K 1.23; D 1.29
chain 5 E6: G 1.74; Q 1.47; S 2.46; W 2.07; H 1.47; P 2.1; T 2.1; A 2.25; K 1.98; L 1.35; N 1.47; D 1.68; F 1.68; M 1.86; R 2.34; I 2.63; V 3.26; C 0.862; Y 2.84
chain 5 K7: A 0.686; G 1.92; I 2.54; R 0.237; Q 2.28; L 2.01; N 1.95; H 2.43; S 1.41; F 0.958; P 2.07; E 2.1; Y 1.26; V 1.71; M 1.02; D 1.53; W 1.38; T 2.01; C 3.02
chain 5 L8: P 1.35; T 0.623; G 1.25; D 0.605; Y 1.2; K 1.14; V 0.302; S 0.886; A 0.868; N 0.838; C 2.78; W 0.778; F 1.77; E 1.26; H 1.92; M 0.988; R 1.53; Q 0.898; I 0.988
chain 5 N4: P 2.07; H 2.63; Y 1.15; A 2.22; F 1.38; V 2.04; S 1.89; R 1.59; M 1.71; G 1.35; D 1.11; I 1.92; T 1.47; L 2.31; E 1.68; W 1.77; K 2.4; Q 1.38; C 2.34

Variants of: B2
Experiment: % of reporter cells activated (NFAT-GFP), raw
Conditions: with B13; scale: % of reporter cells activated

Ratio to parent of substitutions, site by site:
chain 5 E6: A 0.0525; H 0.0361; I 0.0222; N 0.0224; M 0.0342; G 0.0583; Q 0.0298; P 0.101; L 0.0292; F 0.0355; K 0.611; C 0.0215; D 0.0608

Variants of: B3
Experiment: % of reporter cells activated (NFAT-GFP), raw
Conditions: with H5; scale: % of reporter cells activated

Ratio to parent, by site and new letter:
chain 5 L8: C 0.781; Y 0.755; T 0.719; I 0.786; R 0.485; Q 0.842; G 0.515; E 0.49; P 0.332; W 0.255; H 0.985; M 0.689; V 0.531; A 0.709; S 0.464; D 0.352; F 0.423; N 0.281; K 0.837
chain 5 I2: R 0.24; F 0.653; N 0.362; A 0.663; M 0.684; L 0.607; C 0.74; V 1.03; K 0.388; D 0.505; W 0.378; E 0.408; G 0.505; S 0.75; P 0.327; H 0.332; T 0.526; Q 0.454; Y 0.352
chain 5 F5: A 0.923; Q 0.638; N 0.48; H 0.719; K 0.362; W 0.515; S 0.531; T 0.367; V 0.617; D 0.439; R 0.311; M 1.13; E 0.352; Y 0.765; C 0.816; G 0.316; L 0.663; I 2.01; P 0.459
chain 5 S1: E 0.281; I 0.454; N 0.352; L 0.398; A 0.474; W 0.332; T 0.587; C 0.316; V 0.388; G 0.25; Y 0.27; M 2.39; K 0.602; R 0.852; D 0.281; F 0.638; H 0.474; Q 0.469; P 0.383
chain 5 I3: L 0.74; A 0.306; P 0.49; N 0.367; M 0.327; G 0.347; E 0.357; F 0.276; H 0.372; S 0.276; K 0.423; Q 0.337; C 0.5; T 0.352; D 0.265; V 0.985; W 0.286; R 0.403; Y 0.321
chain 5 K7: M 0.362; E 4.34; W 0.352; A 0.648; V 0.75; D 0.597; N 0.893; C 0.77; L 0.638; H 0.806; Y 0.383; R 1.01; I 1.12; S 0.76; F 0.306; Q 0.592; P 0.551; G 0.811; T 1.8
chain 5 E6: Q 0.357; V 0.342; F 0.296; M 0.311; N 0.301; A 0.454; C 0.342; T 0.459; W 0.25; L 0.265; R 0.362; G 0.306; K 0.332; I 0.408; S 0.444; P 0.301; H 0.643; D 0.235; Y 0.332
chain 5 N4: H 8.69; A 0.301; Y 1.1; M 0.352; L 0.469; C 0.49; E 0.367; T 0.352; D 0.316; W 0.5; K 0.592; G 0.362; Q 0.245; S 0.332; V 0.332; F 1.27; P 0.255; R 0.454; I 0.347

Variants of: B4
Experiment: % of reporter cells activated (NFAT-GFP), raw
Conditions: with B3; scale: % of reporter cells activated

Ratio to parent: each site, then its substitutions
chain 5 S1: K 0.356; L 0.118; R 0.101; F 0.18; H 0.259; T 0.194; G 0.192; M 0.195; P 0.303; N 0.0477; Y 0.576; Q 0.266; V 0.34; D 0.229; E 0.216; I 0.207; W 0.138
